Source: patent US20250223354A1 (BIOTHEUS, published 2025)
One block for each binder: values may come before it.

Legend:
[1] = target: T1, human TIGIT expressed on cells (human, UniProt Q495A1 22-244); experiment: flow cytometry, CHO-huTIGIT cells
T1 construct: whole, on cells; cDNA encoding human TIGIT in pCHO1.0 for CHO cells; also called CHO-huTIGIT cells
T1 sequence (looked up): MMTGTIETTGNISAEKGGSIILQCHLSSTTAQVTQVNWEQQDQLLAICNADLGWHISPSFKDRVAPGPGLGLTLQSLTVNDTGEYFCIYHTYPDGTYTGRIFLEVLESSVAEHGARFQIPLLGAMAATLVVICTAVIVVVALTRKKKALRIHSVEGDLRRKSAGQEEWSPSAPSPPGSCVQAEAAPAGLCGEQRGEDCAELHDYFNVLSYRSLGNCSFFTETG
From the text: (§1) Specifically, CHO cells overexpressing human TIGIT (CHO-huTIGIT cells), CHO cells overexpressing cynomolgus TIGIT (CHO-cynoTIGIT cells) and CHO cells overexpressing mouse TIGIT (CHO-muTIGIT cells) were generated by transfection of the pCHO1.0 vector (purchased from Invitrogen) with cDNA encoding human TIGIT, cynomolgus TIGIT and mouse TIGIT cloned into the multiple cloning site (MCS), respectively, followed by pressure screening. The overexpressing cells were expanded and adjusted to an appropriate cell density, and added to a 96-well flow cytometry plate. After centrifugation, the cells were added with a gradiently diluted sample to be tested, and incubated at 4° C. for 30 minutes. The cells were washed twice with PBS, and added with a fluorescent secondary antibody correspondingly diluted to an appropriate concentration, then incubated at 4° C. for 30 minutes, and washed twice with PBS. Cells were resuspended with PBS, and detected on a CytoFlex flow cytometer, and the corresponding MFI was calculated. Graphpad software was used for graphical analysis to obtain EC₅₀ values.

[2] = target: T2, cynomolgus TIGIT overexpressed on CHO cells (cynomolgus, UniProt A0A7N9I9V4 89-312); experiment: flow cytometry, CHO-cynoTIGIT cells
T2 construct: whole, on cells; also called CHO-cynoTIGIT cells
From the text: as §1

human TIGIT-his protein = target: T3, human TIGIT-his protein (human, UniProt Q495A1 22-141); experiment: BLI (ForteBio), IgG on AHQ sensor, 100 nM TIGIT-his, monovalent, 1:1 model
T3 construct: not shown: his tag
T3 sequence: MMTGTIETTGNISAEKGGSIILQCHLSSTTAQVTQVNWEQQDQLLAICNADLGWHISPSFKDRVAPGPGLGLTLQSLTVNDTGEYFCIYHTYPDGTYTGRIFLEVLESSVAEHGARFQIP
Description: (§2) Biofilm layer optical interference technology (ForteBio) was used to determine the binding and dissociation […] values of the anti-TIGIT monoclonal antibodies obtained in Example 1 to human, cynomolgus monkey and mouse TIGIT. Fortebio affinity measurements were performed according to existing methods (Este, P et al., High throughput solution-based measurement of antibody-antigen affinity and epitope binning. Mabs, 2013.5(2): p 270-8).
(§3) The antibody-loaded sensor was incubated in 100 nM TIGIT-his antigen to the plateau phase, and then the sensor was transferred to an analysis buffer and incubated for at least 2 minutes for measuring dissociation rate. The kinetic analysis was performed using a 1:1 binding model.

[3] = target: T4, cynomolgus monkey TIGIT-his protein (cynomolgus monkey); experiment: as above
T4 construct: also called Cynomolgus TIGIT-his; not shown: his tag
Description: as §2, §3

[4] = target: T1, human TIGIT expressed on cells; experiment: flow cytometry, competition with human CD155-mouse IgG2a Fc (2 ug/mL) on CHO-huTIGIT cells
Description: (§4) Specifically, the CHO-huTIGIT cells were expanded and adjusted to a cell density of 2×10⁶ cells/mL, added to a 96-well flow plate at 100 μL/well, and centrifuged for later use. The purified monoclonal antibodies were diluted 3-fold with PBS starting at 400 nM for a total of 12 concentration gradients. The diluted sample was added at 60 μL/well to the cells-carrying 96-well flow plate, and incubated at 4° C. for 30 minutes. […] APC-conjugated goat anti-mouse IgG antibody diluted 100-fold with PBS was added at 100 μL/well, incubated at 4° C. for 30 minutes, and washed twice with PBS. Cells were resuspended with PBS at 100 μL/well, and detected on a CytoFlex flow cytometer, and the corresponding MFI was calculated.

[5] = target: T5, mouse TIGIT overexpressed on CHO cells (mouse, UniProt P86176 29-249); experiment: flow cytometry, competition with mouse CD155-mouse IgG2a Fc (2 ug/mL) on CHO-muTIGIT cells
T5 construct: whole, on cells; also called CHO-muTIGIT cells
T5 sequence (looked up): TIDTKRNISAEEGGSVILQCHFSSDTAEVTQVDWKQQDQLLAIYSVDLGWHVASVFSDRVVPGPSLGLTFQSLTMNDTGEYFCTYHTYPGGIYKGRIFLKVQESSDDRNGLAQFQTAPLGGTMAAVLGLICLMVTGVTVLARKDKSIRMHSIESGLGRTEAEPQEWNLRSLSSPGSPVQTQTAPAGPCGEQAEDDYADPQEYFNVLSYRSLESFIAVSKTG
Description: as §4, with “The CHO-muTIGIT” for “Specifically, the CHO-huTIGIT”, “purified” for “purified monoclonal”, “gradients.” for “gradients. The diluted sample was added at 60 μL/well to the cells-carrying 96-well flow plate, and incubated at 4° C. for 30 minutes.”, “calculated. Graphpad software was used for graphing analysis to obtain IC₅₀ values.” for “calculated.”

[6] = target: T1, human TIGIT expressed on cells; experiment: flow cytometry on activated human primary T cells (TIGIT), readout positive cell (%); unit from the concentration axis
From the text: The binding activity of the anti-TIGIT antibody of the present invention to TIGIT on the surface of activated T cells was detected based on the flow cytometry detection method.
Specifically, human PBMC were sorted according to the experimental protocol provided by […] Company (stemcell, Cat. No.: #17951C) to obtain human total T cells. […] The activated T cells were adjusted to an appropriate cell density and added to a 96-well flow cytometry plate. After centrifugation, the gradiently diluted sample to be tested was added, and incubated at 4° C. for 30 minutes. Washing was carried out twice with PBS, and a fluorescent secondary antibody diluted to an appropriate concentration was added, incubated at 4° C. for 30 minutes, and washed twice with PBS. […]

[7] = target: T1, human TIGIT expressed on cells; experiment: flow cytometry blocking assay: binding of human CD155 protein with mouse IgG2a Fc tag to CHO cells overexpressing human TIGIT, median fluorescence intensity APC-A; unit from the concentration axis
Description: as §4

T2 sequence (A0A7N9I9V4 entry or part of it): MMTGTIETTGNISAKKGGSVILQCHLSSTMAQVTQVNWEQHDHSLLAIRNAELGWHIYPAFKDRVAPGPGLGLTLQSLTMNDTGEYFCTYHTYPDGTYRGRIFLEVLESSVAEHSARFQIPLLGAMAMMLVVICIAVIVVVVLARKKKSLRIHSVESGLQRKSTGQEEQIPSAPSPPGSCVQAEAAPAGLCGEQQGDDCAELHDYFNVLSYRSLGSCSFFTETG
T4 sequence (chain, as listed by the source): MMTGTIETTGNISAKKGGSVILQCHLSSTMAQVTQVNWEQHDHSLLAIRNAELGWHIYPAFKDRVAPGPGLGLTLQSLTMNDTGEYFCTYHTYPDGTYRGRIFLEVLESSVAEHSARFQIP

- EC50 [1]: 0.96 nM
- EC50 [2]: 1.32 nM
- Kd (human TIGIT-his protein): 0.199 nM
- Kd [3]: 4.72 nM
- IC50 [4]: 0.24 nM
- IC50 [5]: 1.5 nM
- EC50 [6]: 0.106 nM
- IC50 [7]: 0.236 nM
B1: anti-TIGIT monoclonal antibody 55796-G1 (antibody, V domains shown)
VH: QLQLQESGPGLVKPAETLSLTCTVSGGSISSYDHYWTWIRQPPGKGLEWIGTVYYSGSTFHNPSLKSRVTIPVDTSKNQFSLKLSSVTAADTAVYYCARVGPDVSHPPFDYWGQGTLVTVSS
VL: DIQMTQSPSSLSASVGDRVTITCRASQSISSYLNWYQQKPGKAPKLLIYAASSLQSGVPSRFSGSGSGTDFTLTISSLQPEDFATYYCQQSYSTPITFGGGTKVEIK
notes: Wild-type human IgG1 heavy chain constant region, human kappa light chain constant region

- EC50 [1]: 0.84 nM
- EC50 [2]: 1.34 nM
- Kd (human TIGIT-his protein): 0.21 nM
- Kd [3]: 4.9 nM
- IC50 [4]: 0.37 nM
- IC50 [5]: 1.56 nM
- EC50 [6]: 0.0878 nM
- IC50 [7]: 0.373 nM
B2: anti-TIGIT monoclonal antibody 55796-G1LALA (antibody, V domains shown)
VH: B1 VH
VL: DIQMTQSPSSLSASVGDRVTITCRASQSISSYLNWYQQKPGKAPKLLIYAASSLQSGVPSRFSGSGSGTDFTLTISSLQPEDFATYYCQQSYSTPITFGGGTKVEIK
notes: Human IgG1 heavy chain constant region modified by L234A, L235A; human kappa light chain constant region; HEK293
